In article PMC10202830, “Cingulin and paracingulin tether myosins-2 to junctions to mechanoregulate the plasma membrane” (The Journal of Cell Biology, 2023):
Like-named read-outs stand apart in the source and are kept apart here.

Key:
[1] = target: His-tagged hCGN Rod2 (667–1203), purified (human) (UniProt Q9P2M7); assay: MST; labelled target His-tagged hCGN Rod2 (red tris-NTA dye, 200 nM); ligands hNM2A rod or hNM2B rod 0–10,000 nM; PBS with 0.05% Tween 20; Monolith NT.115 fit; n = 7
[2] = target: T1, His-tagged mZU5 (1520–1745) (mouse, UniProt P39447 1520-1745); assay: MST; labelled target His-tagged mZU5 (1520–1745; red tris-NTA dye, 50 nM); GST-mCGN (1–112) or GST-mCGNL1 (1–122) 0–1,000 nM in PBS-T; Monolith NT.115 fit; n = 5
T1 construct: mouse ZO-1, residues 1520-1745 (ZU5-containing region); Labelled with the red tris-NTA dye through its His tag in the MST; also called ZU5-containing region of mZO-1 (residues 1520–1745); ZU5-containing fragment
T1 sequence (looked up): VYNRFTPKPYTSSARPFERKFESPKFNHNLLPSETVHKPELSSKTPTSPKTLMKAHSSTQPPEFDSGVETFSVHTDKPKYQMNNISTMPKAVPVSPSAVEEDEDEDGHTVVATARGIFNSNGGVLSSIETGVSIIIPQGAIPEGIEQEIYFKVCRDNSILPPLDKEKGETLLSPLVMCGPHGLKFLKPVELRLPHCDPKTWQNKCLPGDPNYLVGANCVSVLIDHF

[3] = target: T2, full-length hCGNL1 (10xHis-2xStrep), purified (human, UniProt Q0VF96 1-1302); assay: pull-down; affinity purified GST-tagged cNM2A, cNM2B, cNM2C rod fragments as baits; His-tagged full-length CGN and CGNL1 purified from baculovirus-infected insect cells as preys; IB with anti-His (Fig. 1 H–J); details: both partners purified
T2 construct: human paracingulin (CGNL1), 1–1,302aa, in pACEBac1; the plasmid list prints this construct as 'hCGN-FL-10xHis-2xStrep (1–1,302aa; S2518)'; also called His-tagged full-length CGNL1; purified CGNL1; source: baculovirus-infected insect cells, purified (StrepTag resin)
T2 sequence (looked up): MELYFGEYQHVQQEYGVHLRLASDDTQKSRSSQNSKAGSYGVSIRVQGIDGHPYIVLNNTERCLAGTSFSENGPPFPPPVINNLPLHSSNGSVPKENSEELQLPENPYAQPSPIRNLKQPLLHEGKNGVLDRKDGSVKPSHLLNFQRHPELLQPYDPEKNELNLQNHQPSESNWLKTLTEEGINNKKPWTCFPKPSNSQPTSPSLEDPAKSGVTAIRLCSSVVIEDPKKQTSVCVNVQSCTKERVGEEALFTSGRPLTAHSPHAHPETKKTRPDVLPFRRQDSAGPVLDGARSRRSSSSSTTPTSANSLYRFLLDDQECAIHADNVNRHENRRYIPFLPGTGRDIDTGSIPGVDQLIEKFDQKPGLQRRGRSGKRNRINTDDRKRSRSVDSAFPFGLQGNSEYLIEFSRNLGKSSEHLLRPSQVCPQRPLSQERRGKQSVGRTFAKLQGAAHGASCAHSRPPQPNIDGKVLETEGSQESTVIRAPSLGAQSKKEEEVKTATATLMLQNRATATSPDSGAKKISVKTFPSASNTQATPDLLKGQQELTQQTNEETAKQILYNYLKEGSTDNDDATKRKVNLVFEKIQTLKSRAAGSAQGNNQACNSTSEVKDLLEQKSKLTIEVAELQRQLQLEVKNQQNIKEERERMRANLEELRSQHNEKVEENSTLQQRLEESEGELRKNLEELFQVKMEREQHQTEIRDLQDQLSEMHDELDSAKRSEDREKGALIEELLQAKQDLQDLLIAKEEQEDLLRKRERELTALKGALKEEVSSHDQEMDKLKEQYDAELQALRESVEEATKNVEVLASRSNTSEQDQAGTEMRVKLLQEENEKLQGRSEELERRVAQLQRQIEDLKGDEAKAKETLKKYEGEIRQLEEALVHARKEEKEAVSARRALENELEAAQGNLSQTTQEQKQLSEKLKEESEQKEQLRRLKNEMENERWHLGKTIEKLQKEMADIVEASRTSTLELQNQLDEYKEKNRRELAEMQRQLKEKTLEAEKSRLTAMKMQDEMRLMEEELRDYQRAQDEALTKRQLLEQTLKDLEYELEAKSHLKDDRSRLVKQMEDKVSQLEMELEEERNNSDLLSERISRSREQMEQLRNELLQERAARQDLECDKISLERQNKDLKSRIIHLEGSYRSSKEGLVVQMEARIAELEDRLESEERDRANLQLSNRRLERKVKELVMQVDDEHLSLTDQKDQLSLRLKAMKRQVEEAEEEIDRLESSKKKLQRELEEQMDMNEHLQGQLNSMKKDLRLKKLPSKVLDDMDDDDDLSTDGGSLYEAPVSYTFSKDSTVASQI

CGNL1 = target: T3, CGNL1 (Mus musculus (Mouse), UniProt Q6AW69); assay: MST, GST-fusion ligands (GST dimer)
T3 chain: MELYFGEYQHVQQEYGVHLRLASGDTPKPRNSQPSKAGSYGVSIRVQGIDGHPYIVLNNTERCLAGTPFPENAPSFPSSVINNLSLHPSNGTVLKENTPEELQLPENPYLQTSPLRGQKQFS

CGN = target: T4, CGN (Mus musculus (Mouse), UniProt P59242); assay: MST, GST-fusion ligands (GST dimer)
T4 chain: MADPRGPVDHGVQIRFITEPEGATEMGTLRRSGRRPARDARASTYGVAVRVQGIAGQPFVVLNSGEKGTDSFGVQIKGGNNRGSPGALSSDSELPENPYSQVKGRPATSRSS

His-tagged hCGN Rod2 (667–1203), purified (human), sequence (Q9P2M7 667-1203): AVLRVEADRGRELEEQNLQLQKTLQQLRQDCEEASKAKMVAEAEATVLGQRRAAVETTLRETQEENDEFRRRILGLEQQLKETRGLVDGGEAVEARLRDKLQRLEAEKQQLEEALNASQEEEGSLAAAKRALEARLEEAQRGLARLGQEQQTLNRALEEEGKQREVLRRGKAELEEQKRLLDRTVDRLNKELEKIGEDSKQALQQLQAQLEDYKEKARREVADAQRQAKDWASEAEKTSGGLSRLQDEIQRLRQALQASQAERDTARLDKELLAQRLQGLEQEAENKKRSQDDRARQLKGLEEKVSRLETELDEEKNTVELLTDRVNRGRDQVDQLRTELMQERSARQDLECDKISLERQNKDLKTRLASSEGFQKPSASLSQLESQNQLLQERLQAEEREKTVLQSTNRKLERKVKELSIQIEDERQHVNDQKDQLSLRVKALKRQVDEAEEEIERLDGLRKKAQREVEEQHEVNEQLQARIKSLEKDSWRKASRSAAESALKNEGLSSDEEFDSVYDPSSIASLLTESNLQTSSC

Molecule: hNM2B rod (1337–1976), purified (from UniProt P35580 1337-1976) (domain or fragment)
- Kd [1]: 346 nM

Molecule: hNM2A rod (1330–1960), purified (from UniProt P35579 1330-1960) (domain or fragment)
- Kd [1]: 3620 nM

Molecule: GST-mCGN (1–112) (from UniProt P59242 1-112) (domain or fragment)
- Kd [2]: 7.7 nM

B1: GST-cNM2A (1461–1960) (domain or fragment, canis (dog), UniProt Q258K2 1461-1960, looked up)
chain: AEERDRAEAEAREKETKALSLARALEEAMEQKAELERLNKQFRTEMEDLMSSKDDVGKSVHELEKSKRALEQQVEEMKTQLEELEDELQATEDAKLRLEVNLQAMKAQFERDLQGRDEQSEEKKKQLVRQVREMEAELEDEKKQRSMAVAARKKLEMDLKDLEAHIDSANKNRDEAIKQLRKLQAQMKDCVRELDDTRASREEILAQAKENEKKMKSMEAEMIQLQEELAAAERAKRQAQQERDELADEIANSSGKGALALEEKRRLEARIAQLEEELEEEQGNTELVNDRLKKANLQIDQINTDLNLERSHAQKNENARQQLERQNKELKVKLQEMEGTVKSKYKASITALEAKIAQLEEQLDNETKERQAACKQVRRAEKKLKDVLLQVDDERRNAEQFKDQADKASTRLKQLKRQLEEAEEEAQRANASRRKLQRELEDATETADAMNREVSSLKNKLRRGDLPFVVPRRVARKGAGDCSDEEVDGKADGAEAKAAE
notes: canis nonmuscle myosin-2A heavy chain, rod fragment 1461-1960; also called NM2A rod bait, last ≈500 residues; not shown: GST, N-terminal, kept
- binding result [3]: binds

B2: GST-cNM2A (1711–1960) (domain or fragment, canis (dog), UniProt Q258K2 1711-1960, looked up)
chain: ANSSGKGALALEEKRRLEARIAQLEEELEEEQGNTELVNDRLKKANLQIDQINTDLNLERSHAQKNENARQQLERQNKELKVKLQEMEGTVKSKYKASITALEAKIAQLEEQLDNETKERQAACKQVRRAEKKLKDVLLQVDDERRNAEQFKDQADKASTRLKQLKRQLEEAEEEAQRANASRRKLQRELEDATETADAMNREVSSLKNKLRRGDLPFVVPRRVARKGAGDCSDEEVDGKADGAEAKAAE
notes: canis nonmuscle myosin-2A heavy chain, rod and tail fragment 1711-1960; also called last 250 residues of NM2A; not shown: GST, N-terminal, kept
- binding result [3]: binds

B3: GST-mCGNL1 (1–122) (domain or fragment)
chain: MELYFGEYQHVQQEYGVHLRLASGDTPKPRNSQPSKAGSYGVSIRVQGIDGHPYIVLNNTERCLAGTPFPENAPSFPSSVINNLSLHPSNGTVLKENTPEELQLPENPYLQTSPLRGQKQFS
- Kd ([2]; both partners purified): 79.8 nM

B4: ZO1 (protein)
chain: EDEDEDGHTVVATARGIFNSNGGVLSSIETGVSIIIPQGAIPEGIEQEIYFKVCRDNSILPPLDKEKGETLLSPLVMCGPHGLKFLKPVELRLPHCDPKTWQNKCLPGDPNYLVGANCVSVLIDHF
- Kd (CGNL1): 79.8 nM
- Kd (CGN): 7.7 nM
